Experimental data reported in patent publication US20220204580A1 (AstraZeneca / MedImmune, published 2022).
Numbered stars: 1 amine (or outer) side, 2 acyl side, 3 side chain; on linkers, the order of the positions; unused ones are H or OH. Bridge positions count the residues as written; N and C are the ends. Square brackets hold non-standard residues; d marks the D form. Side chains are listed from the residue outwards. Ends that are not written are not given here. * marks the point of attachment. C18 diacid = O=C(O)CCCCCCCCCCCCCCCCC(=O)*; γGlu = O=C(O)[C@H](CCC(=O)[*:2])N[*:1]; αMeF = C[C@](N)(Cc1ccccc1)C(=O)O; Dab = NCC[C@H](N)C(=O)O; Aib = CC(C)(N)C(=O)O

T1: human amylin receptor (calcitonin receptor co-expressed with receptor activity modifying protein, RAMP3) (human, UniProt P30988 25-474; O60896 24-148)
T1 sequence (looked up) 1: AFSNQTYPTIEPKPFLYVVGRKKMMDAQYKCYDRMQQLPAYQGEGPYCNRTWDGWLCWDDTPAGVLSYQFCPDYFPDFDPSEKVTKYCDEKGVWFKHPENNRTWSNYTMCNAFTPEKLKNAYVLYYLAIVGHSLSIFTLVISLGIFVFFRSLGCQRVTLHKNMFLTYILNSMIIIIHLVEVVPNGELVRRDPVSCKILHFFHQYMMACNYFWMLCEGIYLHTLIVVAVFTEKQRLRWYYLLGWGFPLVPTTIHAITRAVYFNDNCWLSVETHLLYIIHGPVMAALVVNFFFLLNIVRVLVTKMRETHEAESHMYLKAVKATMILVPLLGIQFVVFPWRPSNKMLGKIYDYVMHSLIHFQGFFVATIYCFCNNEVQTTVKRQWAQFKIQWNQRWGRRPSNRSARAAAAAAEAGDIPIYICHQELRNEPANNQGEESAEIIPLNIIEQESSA
T1 sequence (looked up) 2: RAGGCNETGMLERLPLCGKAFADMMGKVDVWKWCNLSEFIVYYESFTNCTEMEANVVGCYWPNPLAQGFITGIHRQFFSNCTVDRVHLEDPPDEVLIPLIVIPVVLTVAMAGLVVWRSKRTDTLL

T2: human calcitonin receptor (human, UniProt P30988 25-474)
T2 sequence (looked up): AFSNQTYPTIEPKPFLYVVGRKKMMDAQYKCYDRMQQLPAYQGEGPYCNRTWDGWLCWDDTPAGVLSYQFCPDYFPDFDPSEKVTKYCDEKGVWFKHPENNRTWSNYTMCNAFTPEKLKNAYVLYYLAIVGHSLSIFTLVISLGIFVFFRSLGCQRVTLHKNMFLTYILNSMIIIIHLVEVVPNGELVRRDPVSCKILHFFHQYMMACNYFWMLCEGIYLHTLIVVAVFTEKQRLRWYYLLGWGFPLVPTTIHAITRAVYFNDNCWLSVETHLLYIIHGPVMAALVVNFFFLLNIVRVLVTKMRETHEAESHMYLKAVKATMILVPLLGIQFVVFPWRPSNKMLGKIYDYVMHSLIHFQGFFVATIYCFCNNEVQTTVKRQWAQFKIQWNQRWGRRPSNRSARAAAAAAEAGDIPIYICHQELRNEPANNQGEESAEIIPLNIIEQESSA


Legend:
[1] = molecular target: T1, human amylin receptor (calcitonin …); assay: cell-based or functional assay
[2] = molecular target: T2, human calcitonin receptor; assay: cell-based or functional assay

EC50 (cAMP production) [1] [nM]	Ratio (EC50 hCTR / EC50 hAMYR3) [1]	EC50 (cAMP production) [2] [nM]	Binder
0.364	19.6	7.13	K([γGlu-γGlu-C18 diacid])CNTATCATQRLANFL[Aib]HSSNNFGPILPPTNVGSNTY-NH2 (disulfide 2-7; N-terminus assumed; SMILES CC[C@H](C)[C@H](NC(=O)[C@@H]1CCCN1C(=O)CNC(=O)[C@H](Cc1ccccc1)NC(=O)[C@H](CC(N)=O)NC(=O)[C@H](CC(N)=O)NC(=O)[C@H](CO)NC(=O)[C@H](CO)NC(=O)[C@H](Cc1c[nH]cn1)NC(=O)C(C)(C)NC(=O)[C@H](CC(C)C)NC(=O)[C@H](Cc1ccccc1)NC(=O)[C@H](CC(N)=O)NC(=O)[C@H](C)NC(=O)[C@H](CC(C)C)NC(=O)[C@H](CCCNC(=N)N)NC(=O)[C@H](CCC(N)=O)NC(=O)[C@@H](NC(=O)[C@H](C)NC(=O)[C@@H]1CSSC[C@H](NC(=O)[C@@H](N)CCCCNC(=O)CC[C@H](NC(=O)CC[C@H](NC(=O)CCCCCCCCCCCCCCCCC(=O)O)C(=O)O)C(=O)O)C(=O)N[C@@H](CC(N)=O)C(=O)N[C@@H]([C@@H](C)O)C(=O)N[C@@H](C)C(=O)N[C@@H]([C@@H](C)O)C(=O)N1)[C@@H](C)O)C(=O)N[C@@H](CC(C)C)C(=O)N1CCC[C@H]1C(=O)N1CCC[C@H]1C(=O)N[C@H](C(=O)N[C@@H](CC(N)=O)C(=O)N[C@H](C(=O)NCC(=O)N[C@@H](CO)C(=O)N[C@@H](CC(N)=O)C(=O)N[C@H](C(=O)N[C@@H](Cc1ccc(O)cc1)C(N)=O)[C@@H](C)O)C(C)C)[C@@H](C)O) [Peptide 127 (SEQ ID NO: 127)]
0.445	19	8.45	K([γGlu-C18 diacid])KCNTATCATQRLANFL[Aib]HSS[Dab]NFGPILPPTNVGSNTY-NH2 (disulfide 3-8; N-terminus assumed; SMILES CC[C@H](C)[C@H](NC(=O)[C@@H]1CCCN1C(=O)CNC(=O)[C@H](Cc1ccccc1)NC(=O)[C@H](CC(N)=O)NC(=O)[C@H](CCN)NC(=O)[C@H](CO)NC(=O)[C@H](CO)NC(=O)[C@H](Cc1c[nH]cn1)NC(=O)C(C)(C)NC(=O)[C@H](CC(C)C)NC(=O)[C@H](Cc1ccccc1)NC(=O)[C@H](CC(N)=O)NC(=O)[C@H](C)NC(=O)[C@H](CC(C)C)NC(=O)[C@H](CCCNC(=N)N)NC(=O)[C@H](CCC(N)=O)NC(=O)[C@@H](NC(=O)[C@H](C)NC(=O)[C@@H]1CSSC[C@H](NC(=O)[C@H](CCCCN)NC(=O)[C@@H](N)CCCCNC(=O)CC[C@H](NC(=O)CCCCCCCCCCCCCCCCC(=O)O)C(=O)O)C(=O)N[C@@H](CC(N)=O)C(=O)N[C@@H]([C@@H](C)O)C(=O)N[C@@H](C)C(=O)N[C@@H]([C@@H](C)O)C(=O)N1)[C@@H](C)O)C(=O)N[C@@H](CC(C)C)C(=O)N1CCC[C@H]1C(=O)N1CCC[C@H]1C(=O)N[C@H](C(=O)N[C@@H](CC(N)=O)C(=O)N[C@H](C(=O)NCC(=O)N[C@@H](CO)C(=O)N[C@@H](CC(N)=O)C(=O)N[C@H](C(=O)N[C@@H](Cc1ccc(O)cc1)C(N)=O)[C@@H](C)O)C(C)C)[C@@H](C)O) [Peptide 126 (SEQ ID NO: 126)]
0.22	6	1.35	K([γGlu-C18 diacid])KCNTATCATQRLANFLVHSSNN[αMeF]GPILPPTNVGSNTY-NH2 (disulfide 3-8) [Peptide 14 (SEQ ID NO: 14)]
0.737	20.5	15.1	K([γGlu-C18 diacid])KCNTATCATQRLANFL[Aib]HSSHNFGPILPPTNVGSNTY-NH2 (disulfide 3-8; N-terminus assumed; SMILES CC[C@H](C)[C@H](NC(=O)[C@@H]1CCCN1C(=O)CNC(=O)[C@H](Cc1ccccc1)NC(=O)[C@H](CC(N)=O)NC(=O)[C@H](Cc1c[nH]cn1)NC(=O)[C@H](CO)NC(=O)[C@H](CO)NC(=O)[C@H](Cc1c[nH]cn1)NC(=O)C(C)(C)NC(=O)[C@H](CC(C)C)NC(=O)[C@H](Cc1ccccc1)NC(=O)[C@H](CC(N)=O)NC(=O)[C@H](C)NC(=O)[C@H](CC(C)C)NC(=O)[C@H](CCCNC(=N)N)NC(=O)[C@H](CCC(N)=O)NC(=O)[C@@H](NC(=O)[C@H](C)NC(=O)[C@@H]1CSSC[C@H](NC(=O)[C@H](CCCCN)NC(=O)[C@@H](N)CCCCNC(=O)CC[C@H](NC(=O)CCCCCCCCCCCCCCCCC(=O)O)C(=O)O)C(=O)N[C@@H](CC(N)=O)C(=O)N[C@@H]([C@@H](C)O)C(=O)N[C@@H](C)C(=O)N[C@@H]([C@@H](C)O)C(=O)N1)[C@@H](C)O)C(=O)N[C@@H](CC(C)C)C(=O)N1CCC[C@H]1C(=O)N1CCC[C@H]1C(=O)N[C@H](C(=O)N[C@@H](CC(N)=O)C(=O)N[C@H](C(=O)NCC(=O)N[C@@H](CO)C(=O)N[C@@H](CC(N)=O)C(=O)N[C@H](C(=O)N[C@@H](Cc1ccc(O)cc1)C(N)=O)[C@@H](C)O)C(C)C)[C@@H](C)O) [Peptide 131 (SEQ ID NO: 131)]
0.118	4.8	0.568	K([γGlu-C18 diacid])KCNTATCATQRLAEFL[Aib]HSSNNFGPILPPTNVGSNTY-NH2 (disulfide 3-8; N-terminus assumed; SMILES CC[C@H](C)[C@H](NC(=O)[C@@H]1CCCN1C(=O)CNC(=O)[C@H](Cc1ccccc1)NC(=O)[C@H](CC(N)=O)NC(=O)[C@H](CC(N)=O)NC(=O)[C@H](CO)NC(=O)[C@H](CO)NC(=O)[C@H](Cc1c[nH]cn1)NC(=O)C(C)(C)NC(=O)[C@H](CC(C)C)NC(=O)[C@H](Cc1ccccc1)NC(=O)[C@H](CCC(=O)O)NC(=O)[C@H](C)NC(=O)[C@H](CC(C)C)NC(=O)[C@H](CCCNC(=N)N)NC(=O)[C@H](CCC(N)=O)NC(=O)[C@@H](NC(=O)[C@H](C)NC(=O)[C@@H]1CSSC[C@H](NC(=O)[C@H](CCCCN)NC(=O)[C@@H](N)CCCCNC(=O)CC[C@H](NC(=O)CCCCCCCCCCCCCCCCC(=O)O)C(=O)O)C(=O)N[C@@H](CC(N)=O)C(=O)N[C@@H]([C@@H](C)O)C(=O)N[C@@H](C)C(=O)N[C@@H]([C@@H](C)O)C(=O)N1)[C@@H](C)O)C(=O)N[C@@H](CC(C)C)C(=O)N1CCC[C@H]1C(=O)N1CCC[C@H]1C(=O)N[C@H](C(=O)N[C@@H](CC(N)=O)C(=O)N[C@H](C(=O)NCC(=O)N[C@@H](CO)C(=O)N[C@@H](CC(N)=O)C(=O)N[C@H](C(=O)N[C@@H](Cc1ccc(O)cc1)C(N)=O)[C@@H](C)O)C(C)C)[C@@H](C)O) [Peptide 128 (SEQ ID NO: 128)]
0.446	15	6.69	K([γGlu-C18 diacid])KCNTATCATQRLAEFL[Aib]HSSHNFGPILPPTNVGSNTY-NH2 (disulfide 3-8; N-terminus assumed; SMILES CC[C@H](C)[C@H](NC(=O)[C@@H]1CCCN1C(=O)CNC(=O)[C@H](Cc1ccccc1)NC(=O)[C@H](CC(N)=O)NC(=O)[C@H](Cc1c[nH]cn1)NC(=O)[C@H](CO)NC(=O)[C@H](CO)NC(=O)[C@H](Cc1c[nH]cn1)NC(=O)C(C)(C)NC(=O)[C@H](CC(C)C)NC(=O)[C@H](Cc1ccccc1)NC(=O)[C@H](CCC(=O)O)NC(=O)[C@H](C)NC(=O)[C@H](CC(C)C)NC(=O)[C@H](CCCNC(=N)N)NC(=O)[C@H](CCC(N)=O)NC(=O)[C@@H](NC(=O)[C@H](C)NC(=O)[C@@H]1CSSC[C@H](NC(=O)[C@H](CCCCN)NC(=O)[C@@H](N)CCCCNC(=O)CC[C@H](NC(=O)CCCCCCCCCCCCCCCCC(=O)O)C(=O)O)C(=O)N[C@@H](CC(N)=O)C(=O)N[C@@H]([C@@H](C)O)C(=O)N[C@@H](C)C(=O)N[C@@H]([C@@H](C)O)C(=O)N1)[C@@H](C)O)C(=O)N[C@@H](CC(C)C)C(=O)N1CCC[C@H]1C(=O)N1CCC[C@H]1C(=O)N[C@H](C(=O)N[C@@H](CC(N)=O)C(=O)N[C@H](C(=O)NCC(=O)N[C@@H](CO)C(=O)N[C@@H](CC(N)=O)C(=O)N[C@H](C(=O)N[C@@H](Cc1ccc(O)cc1)C(N)=O)[C@@H](C)O)C(C)C)[C@@H](C)O) [Peptide 130 (SEQ ID NO: 130)]
0.416	9.3	3.85	K([γGlu-C18 diacid])KCNTATCATQRLANFL[Aib]HSSPNFGPILPPTNVGSNTY-NH2 (disulfide 3-8; N-terminus assumed; SMILES CC[C@H](C)[C@H](NC(=O)[C@@H]1CCCN1C(=O)CNC(=O)[C@H](Cc1ccccc1)NC(=O)[C@H](CC(N)=O)NC(=O)[C@@H]1CCCN1C(=O)[C@H](CO)NC(=O)[C@H](CO)NC(=O)[C@H](Cc1c[nH]cn1)NC(=O)C(C)(C)NC(=O)[C@H](CC(C)C)NC(=O)[C@H](Cc1ccccc1)NC(=O)[C@H](CC(N)=O)NC(=O)[C@H](C)NC(=O)[C@H](CC(C)C)NC(=O)[C@H](CCCNC(=N)N)NC(=O)[C@H](CCC(N)=O)NC(=O)[C@@H](NC(=O)[C@H](C)NC(=O)[C@@H]1CSSC[C@H](NC(=O)[C@H](CCCCN)NC(=O)[C@@H](N)CCCCNC(=O)CC[C@H](NC(=O)CCCCCCCCCCCCCCCCC(=O)O)C(=O)O)C(=O)N[C@@H](CC(N)=O)C(=O)N[C@@H]([C@@H](C)O)C(=O)N[C@@H](C)C(=O)N[C@@H]([C@@H](C)O)C(=O)N1)[C@@H](C)O)C(=O)N[C@@H](CC(C)C)C(=O)N1CCC[C@H]1C(=O)N1CCC[C@H]1C(=O)N[C@H](C(=O)N[C@@H](CC(N)=O)C(=O)N[C@H](C(=O)NCC(=O)N[C@@H](CO)C(=O)N[C@@H](CC(N)=O)C(=O)N[C@H](C(=O)N[C@@H](Cc1ccc(O)cc1)C(N)=O)[C@@H](C)O)C(C)C)[C@@H](C)O) [Peptide 132 (SEQ ID NO: 132)]
